Residue numbers refer to the chain shown, from its start.

Assay [1] deals with recombinant human TREM2-DAP12 fusion protein expressed on cells (human). Kind of assay: cell-based or functional assay.
Assay [2] has as its target T1, mouse TREM2 on cells (mouse), Q99NH8.
T1 chain: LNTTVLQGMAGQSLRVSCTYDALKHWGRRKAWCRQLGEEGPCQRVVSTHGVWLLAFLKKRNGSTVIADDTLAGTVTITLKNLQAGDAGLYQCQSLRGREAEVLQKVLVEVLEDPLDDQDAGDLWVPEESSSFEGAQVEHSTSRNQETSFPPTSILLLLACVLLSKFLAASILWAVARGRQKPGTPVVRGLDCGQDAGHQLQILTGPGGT
Kind of assay: KD cell binding.

For assay [3] the target is unchanged. Kind of assay: FACS, BWZmT2 cells. (A flow cytometer gives signals particle by particle.)
Assay [4] shares this target. Kind of assay: cell-based or functional assay.
The target is the same in assay [5]. Kind of assay: FACS, WT mouse macrophages.
Assay [6] addresses TREM2 protein of the 'Percent APOE binding' column of Table 9B. The experiment in a line: TREM2 binding to APOE with antibody; assay not described for this table.

Sequence of recombinant human TREM2-DAP12 fusion protein expressed on cells (human) (chain, as listed by the source limits assumed, form in doubt): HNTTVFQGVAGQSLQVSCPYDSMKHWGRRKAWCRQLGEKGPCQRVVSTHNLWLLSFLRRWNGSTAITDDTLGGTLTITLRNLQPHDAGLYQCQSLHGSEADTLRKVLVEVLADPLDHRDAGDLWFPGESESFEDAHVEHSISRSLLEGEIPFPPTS

B1: 8A1 (antibody, IgG2a, V domains shown)
VL: DIQMTQSPASLSVSVGETVTITCRTSENVYSNLAWYQQKQGKSPQLLVYAATNLADGVPSRFSASGSATQFSLKINSLQSADFGSYYCHHFWGTPYTFGGGTKLEMN
VH: EVQLQQSGAELVKPGASVKISCKASGYAFSNYWMSWVKQRPGKGLEWIGQIYPGDGDTKYNGKFEGKATLTADKSSSTAYMQLSSLTSEDSAVYFCSREKGADYYGSTYSAWFSYWGQGTLVTVSA
As for B1, in assay [1], the BWZhT2 LUC Plate-bound (FOB) worked out at 5.46 FOB and the BWZhT2 LUC Solution (FOB) is 0.35 FOB.

B2: 3A7 (antibody, IgG1, V domains shown)
VL: not shown
VH: EVKLEESGGGLVQPGGSMKLSCAASGFTFSDAWMGWVRQSPEKGLEWVAEIRDKVKNHATYYAESVKGRFTISRDDSKSTVYLQMNTLRADDTGIYYCRLGVFDYWGQGTTLTVSS
modifications: not checked
As a reminder, the Kd is the equilibrium constant for the complex coming apart. B2 had an equilibrium dissociation constant (Kd) in assay [2] of 5.86 nM. In assay [3], the MFI BWZmT2 was 2870 MFI. In assay [4], this molecule displayed a BWZmT2 LUC Plate-bound (FOB) of 7.8 FOB, a BWZmT2 LUC Solution (FOB) of 7.18 FOB and a decrease in cell surface level of TREM2 on BMDM (FACS) of 58%. For the same molecule, the % Positive WT BMMACS in assay [5] was determined as 26.3%. In assay [6], this molecule registered a Percent APOE binding of 92.3%.

B3: 9F5 (antibody, IgG1, V domains shown)
VL: DVVMTQTPLSLPVSLGDQASISCRSSQSLVHSNGYTYLHWYLQKPGQSPKLLIYKVSNRFSGVPDRFSGSGSGTDFTLKISRVEADDLGVYFCSQSTRVPYTFGGGTKLEIK
VH: QVQLQQSGPELVKPGASLKISCKASGYAFSSSWMNWVKQRPGKGLEWIGRIYPGDGDTNYNGEFRVRATLTADTSSTTAYMQLSSLTSEDSAVYFCARLLRNQPGESYAMDYWGQGASVTVSS
Turning to B3, in assay [1], the BWZhT2 LUC Plate-bound (FOB) worked out at 2.48 FOB, the BWZhT2 LUC Solution (FOB) was determined as 1.75 FOB and the BWZhT2 LUC Solution + PS (Δ Bmax) was determined as 2930.

B4: 9G1 (antibody, IgG1, V domains shown)
VL: B3 VL with V3L, S25F, Y35N, K79R, R82G, D86E, Y101P
VH: QVQLQQSGAELVKPGASVKLSCKASGYIFTTYWIHWVKQRPGRGPEWIGRIDPNNGDTNYNEKFKTKATLTVDKPSSTADMQLSSLTSEDSAVYYCVMTGTDFDYWGQGTTLTVSS
For the molecule B4, in assay [1], the BWZhT2 LUC Plate-bound (FOB) was determined as 1.59 FOB, the BWZhT2 LUC Solution (FOB) came out at 1.07 FOB and the BWZhT2 LUC Solution + PS (Δ Bmax) stood at 2660.

B5: 6H2 (antibody, IgG2a, V domains shown)
VL: DVLMTQTPLSLPVSLGDQASISCRSSQSIVHSNGNTYLEWYLQKPGQSPKLLIYKVSNRFSGVPDRFSGSGSGTDFTLKISRVEAEDLGVYYCFQGSHVPFTFGSGTKLEIK
VH: QVQLQESGPGLVQPSQSLSIICTVSAFSLTNYAVHWIRQSPGKGLEWLGVIWSGGSTAFNAAFISRLNISKDNSKSQVFFKMNSLQSDDTAIYYCATHYYRSTYAFSYWGQGTLVTVSA
On to B5, for which, in assay [1], the BWZhT2 LUC Plate-bound (FOB) amounted to 1.1 FOB, the BWZhT2 LUC Solution (FOB) is 3.6 FOB and the BWZhT2 LUC Solution + PS (Δ Bmax) is -40200.

B6: 10A9 (antibody, IgG1, V domains shown)
VL: B5 VL with L3V, S28T, V30I, Q43R, S61C, F101Y, S105G, K108E
VH: QVQLQQSGAEVVKPGASVKMSCKTSGYPFSNFWITWVKQRPGQGLVWIGDIYPGSDNRNFNERFKTKATLTVDTSSSTAYMHLSSLTSEDSAVYFCAREAYYTNPGFAYWGQGTLVTVSA
Consider B6, for which, in assay [1], the BWZhT2 LUC Plate-bound (FOB) came to 2.18 FOB and the BWZhT2 LUC Solution (FOB) is 0.31 FOB.

B7: 3A2 (antibody, IgG1, V domains shown)
VL: B5 VL with L3V, S28T, V30I, Q43R, F101Y, S105G, K108E
VH: B6 VH with V11L, R58S, F60Y, R63K, A120T
Consider B7, for which, in assay [1], the BWZhT2 LUC Plate-bound (FOB) was determined as 1.07 FOB and the BWZhT2 LUC Solution (FOB) was 0.32 FOB.

The values above are taken from patent US20230295297A1.
